Measurements reported in PMC6193743, “Phosphoglucomutase 1 inhibits hepatocellular carcinoma progression by regulating glucose trafficking”.

How the values were obtained:
HIS-CNBP [1] = target: T1, HIS-CNBP (Homo sapiens, UniProt P62633 1-177); assay: EMSA; Chemiluminescent EMSA Kit (Thermo) binding buffer, room temperature, 20 min, 5% polyacrylamide gel; salt and pH not stated; details: protein: recombinant; tags: His (pET-28a); potential G4
HIS-CNBP [2] = target: T1, HIS-CNBP; assay: competition; unlabeled G20 competes with biotin-G20; Chemiluminescent EMSA Kit (Thermo) binding buffer, room temperature, 20 min, 5% polyacrylamide gel; salt and pH not stated; details: protein: recombinant; tags: His (pET-28a); potential G4

T1 sequence (P62633 whole entry): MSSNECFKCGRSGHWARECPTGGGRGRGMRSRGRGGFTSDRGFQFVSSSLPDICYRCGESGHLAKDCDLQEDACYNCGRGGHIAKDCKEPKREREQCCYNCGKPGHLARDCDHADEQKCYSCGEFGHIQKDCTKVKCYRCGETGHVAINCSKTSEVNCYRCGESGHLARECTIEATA

Binder	binding result (HIS-CNBP [1])	binding result (HIS-CNBP [2])
GGGCTGGCGCGGAGGGAGGG (ssDNA) [Biotin-G20]	binds	–
GGGCTGGCGCGGAGGGAGGG (ssDNA) [G20 unlabeled]	–	binds
